B1: Ribonuclease, P00648 (parent)
chain: MMKMEGIALKKRLSWISVCLLVLVSAAGMLFSTAAKTETSSHKAHTEAQVINTFDGVADYLQTYHKLPDNYITKSEAQALGWVASKGNLADVAPGKSIGGDIFSNREGKLPGKSGRTWREADINYTSGFRNSDRILYSSDWLIYKTTDHYQTFTKIR

Variants of: B1
Conditions: Bacillus amyloliquefaciens, pH 6.3, Thermal, DSC, MES 50 mM, structure 1BNI, whole UniProt chain shown; for ddG of mutation (higher = less stable): 54.1 °C

Variant | ddG of mutation (higher = less stable) | Tm | change of melting temperature, mutant - wild type (higher = more stable)
G99A | 5.3 kcal/mol |  | 
G99V | 8.4 kcal/mol | 33 °C | -21.1 °C
G100V | 7.8 kcal/mol | 34.5 °C | -19.6 °C
G100A | 3.4 kcal/mol | 45.5 °C | -8.6 °C
